Patent publication US7732178B2, “Laccase enzymes and their uses” (AB Enzymes Oy, priority 2004, dated 2010)
“Also recorded” adds a separate entry of the source.

Assays:
[1] = Denim bleaching at different pH values; parameters: key to After laccase treatment L* / After laccase treatment b* / Increase of L*: CIE L*a*b* colour coordinates (illuminant D65), Minolta reflectance; settings: for After laccase treatment L* / After laccase treatment b* / Increase of L*: face side of denim, 30 min, 50° C.
Procedure: (§1) Lee Cooper jeans (MASI Company Oy, Finland) that were desized and treated with neutral ECOSTONE® cellulase were used as test material. Laccase treatments were performed in LP-2 Launder Ometer as follows. About 10 g of denim swatches (15×14 cm) were loaded into 1.2 liter containers containing 200 ml Mc Ilvaine's citrate phosphate buffer pH 5, 6 or 7 and the containers were temperated. Enzyme with or without the mediator (methyl syringate, DeniLite II Assist, Novozymes) was added as laccase activity units. Enzyme was dosed 200 nkat/g and the mediator 10 mg/g on the weight of fabric. […] The Launder Ometer was run at 50° C. for 30 min and after that the temperature in Launder was raised to 80° C. for 10 min. The swatches were carefully rinsed with warm water, dried half-dry in a tumbler and after that air dried.
(§2) The bleaching effect was evaluated by measuring the colour as reflectance values with the Minolta Chromameter CM 1000 (Minolta Co.) using L*a*b* color space coordinates (illuminant D65). The colour from both sides of the swatches was measured before and after the laccase treatment. Each measurement was the average of several measurements.

Decolorization of dyes [2] = assay: Decolorization of dyes; parameters: key to Decolorization of Indigocarmine, Time 30 min / Decolorization of Indigocarmine, Time 60 min: −: no visually detectable change; +: visually detectable fading of the colour; ++: considerable fading of the colour; +++: complete/almost complete decolorization; settings: for Decolorization of Indigocarmine, Time 30 min / Decolorization of Indigocarmine, Time 60 min: dye 5 mg/50 ml, enzyme 100 nkat/50 ml, 50° C., pH 6
Procedure: (§3) The recombinant laccases CtLcc1, TaLcc2 and TaLcc4, derived from Trichoderma strains (Example 7) were tested for their ability to decolorize different dyes in the presence of the methyl syringate mediator (Example 7) or without it. The experiments were carried out in 100 ml shake flasks containing 50 ml of dye dissolved in citrate phosphate buffer pH 6. Dye concentration 5 mg/50 ml was used. Enzyme was dosed 100 nkat per 50 ml and the mediator 5 mg per 50 ml. Control samples contained only dye solution. The shake flasks were incubated at 50° C. for 30, 60 and 120 minutes. Samples of 3.5 ml were taken in test tubes for visual evaluation.

Decolorization of dyes [3] = assay: Decolorization of dyes; parameters: key to Decolorization of Remazol Brilliant blue, Time 30 min / Decolorization of Remazol Brilliant blue, Time 60 min: −: no visually detectable change; +: visually detectable fading of the colour; ++: considerable fading of the colour; +++: complete/almost complete decolorization; settings: for Decolorization of Remazol Brilliant blue, Time 30 min / Decolorization of Remazol Brilliant blue, Time 60 min: dye 5 mg/50 ml, enzyme 100 nkat/50 ml, 50° C., pH 6
Procedure: as §3

[4] = Specific activity towards syringaldazine; format: biochemical; settings: 25 mM MES buffer, pH 5.5
Procedure: Specific activities of the purified T. arenaria and C. thermophilum laccases were determined towards different laccase substrates.

[5] = Denim bleaching at different temperatures; parameters: key to After laccase treatment L* / After laccase treatment b* / Increase of L*: CIE L*a*b* colour coordinates (illuminant D65), reflectance; settings: for After laccase treatment L* / After laccase treatment b* / Increase of L*: face side of denim, 30 min, pH 6, enzyme 200 nkat/g, mediator 10 mg/g
Procedure: as §1, §2
The test system and denim were as in Example 7, except that the conditions during the laccase and mediator treatment in Launder were 30 min, pH 6 and temperature 30-70° C. (DeniLite II Base also at 80° C.) and the enzyme was inactivated by alkaline treatment instead of raising the temperature in Launder as follows. After removing swatches from the containers they were soaked in warm water containing NaOH (pH 11.5) for 10 min and rinsed carefully with warm water. The swatches were dried half-dry in a tumbler and after that air dried. The bleaching effect was evaluated by measuring the colour as reflectance values as in Example 7.

[6] = Redox potential of T1 copper, photometric copper titration; format: physicochemical; settings: 0.1 M KH2PO4 (pH 6.0)
Procedure: The purified recombinant Thielavia and Chaetomium laccases were characterized in terms of pH optimum, thermal stability, and pI as described in Example 2. The molecular weight was determined by MALDI-TOF mass spectrometry on a Ultraflex™ time-of-flight instrument (BrukerDaltonics, Germany) as previously described (Palonen et al., 2003). The redox-potentials of the T1 coppers of for CtLcc, and TaLcc2 laccases were determined by photometric copper titration in 0.1 M KH2PO4 (pH 6.0) as described by Xu et al. (1996) using the redox titrant couple K3Fe(CN)6/K4Fe(CN)6. The redox potential of TaLcc1 was determined with a combined Pt—AgCl/KCl microelectrode at pH 5.0 according to Sigoillot et al (2004). The characterization results are collected to Table 14.

[7] = pH 5, enzyme 200 nkat/g without the mediator, or mediator 10 mg/g alone
[8] = pH 5, enzyme 200 nkat/g, mediator 10 mg/g
[9] = pH 6, enzyme 200 nkat/g without the mediator, or mediator 10 mg/g alone
[10] = pH 6, enzyme 200 nkat/g, mediator 10 mg/g
[11] = pH 7, enzyme 200 nkat/g without the mediator, or mediator 10 mg/g alone
[12] = pH 7, enzyme 200 nkat/g, mediator 10 mg/g
[13] = in the presence of the mediator

- After laccase treatment L* [1, 7]: 28.88
- After laccase treatment b* [1, 7]: −18.65
- After laccase treatment L* [1, 8]: 35.07
- After laccase treatment b* [1, 8]: −18.38
- After laccase treatment L* [1, 9]: 28.83
- After laccase treatment b* [1, 9]: −18.53
- After laccase treatment L* [1, 10]: 40.08
- After laccase treatment b* [1, 10]: −17.18
- After laccase treatment L* [1, 11]: 29.32
- After laccase treatment b* [1, 11]: −18.52
- After laccase treatment L* [1, 12]: 36.69
- After laccase treatment b* [1, 12]: −17.88
- After laccase treatment L* ([5]; 30° C.): 31.78
- After laccase treatment b* ([5]; 30° C.): −19.15
- After laccase treatment L* ([5]; 40° C.): 34.43
- After laccase treatment b* ([5]; 40° C.): −18.77
- After laccase treatment L* ([5]; 50° C., alkaline inactivation): 36.78
- After laccase treatment b* ([5]; 50° C., alkaline inactivation): −18.96
- After laccase treatment L* ([5]; 60° C.): 37.40
- After laccase treatment b* ([5]; 60° C.): −18.29
- After laccase treatment L* ([5]; 70° C.): 34.16
- After laccase treatment b* ([5]; 70° C.): −17.91
B1: CtLcc1: Chaetomium thermophilum ALKO 4265 laccase, SEQ ID NO: 47, produced in Trichoderma reesei (protein)
chain: MKFLTYATALLGALTAVVGAIPTRSGTKKKYIRDGPGPCHTPSNRACWAPGFDINTDYEVNTPNTGVTRNYTLTLTEEDNWTGPDGVVKEKIMLVNGKTLGPTIEANWGDWIEVKVINNLLTNGTSIHWHGIHQKGSNLHDGANGVTECPIPPNGGQRTYRFRAQQYGTSWYHSHFSAQYGNGIVGPIVIHGPASLPYDIDLGPFPLTDYYYKSADELVRHTQNNGPPFSDNVLFNGTGVHPQTGHGQYAKVTLTPGKRHRLRIINMSTENHFQVSLVGHQFTVIAADMVPVHSYTTDSLFLAVGQRYDVTIDASQTPGNYWFNVTFGGGFACGGSFNPNPAAIFHYEGAPDALPTDPGVPPRDHNCLDTLDLVPVVPRNVQVNQFVKKPENTLPVELSLGGTPLFVWKVNGSAIDVDWGNPVLQYVMDRNTSYRQADNIVEVNGVNQWTYWLIENDPNGAFSLPHPMHLHGHDFLIVGRSPDVPPGSNQRYNFDPATDIYRLRGQNPTRRDVAMLPAGGWLLLAFLTDNPGAWLFHCHIAWHVSGGLSVDFLERPNDLRNSILQHDKDEFNRVCNEWRTYWPNSPHPKIDSGLKHRWVEESEWLVR
modifications: Chaetomium thermophilum ALKO4265; (1)..(607) Deduced amino acid sequence of Chaetomium thermophilum ALKO4265 CtLcc1
- Increase of L* [1, 7]: 0.46
- Increase of L* [1, 8]: 5.91
- Increase of L* [1, 9]: −0.13
- Increase of L* [1, 10]: 11.19
- Increase of L* [1, 11]: 0.73
- Increase of L* [1, 12]: 8.31
- decolorization of indigo dye of denim compared to DeniLite II Base ([1]; pH values 6 and 7, with mediator): more efficient
- Decolorization of Indigocarmine, Time 30 min (Decolorization of dyes [2]; mediator 0 mg/50 ml): −
- Decolorization of Indigocarmine, Time 60 min (Decolorization of dyes [2]; mediator 0 mg/50 ml): −
- Decolorization of Indigocarmine, Time 30 min (Decolorization of dyes [2]; mediator 5 mg/50 ml): +++
- Decolorization of Indigocarmine, Time 60 min (Decolorization of dyes [2]; mediator 5 mg/50 ml): +++
- decolorization of Indigocarmine (Decolorization of dyes [2]; [13]): very effectively; also recorded: to great extend or completely
- Decolorization of Remazol Brilliant blue, Time 30 min (Decolorization of dyes [3]; mediator 0 mg/50 ml): −
- Decolorization of Remazol Brilliant blue, Time 60 min (Decolorization of dyes [3]; mediator 0 mg/50 ml): −
- Decolorization of Remazol Brilliant blue, Time 30 min (Decolorization of dyes [3]; mediator 5 mg/50 ml): ++
- Decolorization of Remazol Brilliant blue, Time 60 min (Decolorization of dyes [3]; mediator 5 mg/50 ml): +++
- decolorization of Remazol Brilliant Blue (Decolorization of dyes [3]; [13]): very effectively; also recorded: to great extend or completely
- Specific activity on syringaldazin [4]: 400 nkat/mg
- decolorization of denim (increase of lightness) compared to Denilite II Base ([5]; 40-50 ° C. and pH 6): more efficient
- Increase of L* ([5]; 30° C.): 2.44
- Increase of L* ([5]; 40° C.): 5.72
- Increase of L* ([5]; 50° C., alkaline inactivation): 8.26
- Increase of L* ([5]; 60° C.): 8.52
- Increase of L* ([5]; 70° C.): 5.23
- E^0 [6]: 480 mV
